Assay results reported in patent publication US10117916B2, “Peptides and combination of peptides for use in immunotherapy against CLL and other cancers” (immatics biotechnologies GmbH, priority 2015, dated 2018).

Assays:
HLA-A*02:01 = HLA-A*02:01 (Homo sapiens, UniProt P04439, D140Y/D185E/D98H/E176V/E277Q/G131W/G231S/I119V/I121R/I166T/I218V/L300P/L318F/N151K/N90K/P208A/P217A/Q86G/Q94H/R138H/R169H/T345S); assay: MHC binding assay: UV-ligand exchange with β2m ELISA (peptide exchange yield); conditions: MHC class I binding score; binding to HLA-A*02:01 ranged by peptide exchange yield (UV-ligand exchange, β2m ELISA)
Procedure, shortened: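 Binding capacity is expressed as the yield of UV-mediated ligand exchange, reflecting how well each peptide stabilizes peptide-receptive MHC. Stabilized complexes are read out by anti-β2m HRP ELISA (450 nm) after streptavidin capture, with refolded MLA-001 monomer standards for quantitation.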

CD8+ T cells = assay: In vitro immunogenicity: T-cell priming with aAPCs loaded with peptide/MHC and anti-CD28, pMHC multimer readout; type: cell-based, human; conditions: HLA-A*02 restricted peptides; CD8+ T cells of healthy donors; three stimulation cycles
Protocol: In an aspect, the peptides are pre-screened for immunogenicity before being included in the warehouse. By way of example, and not limitation, the immunogenicity of the peptides included in the warehouse is determined by a method comprising in vitro T-cell priming through repeated stimulations of CD8+ T cells from healthy donors with artificial antigen presenting cells loaded with peptide/MHC complexes and anti-CD28 antibody.
CD8+ T cells were primed using artificial APCs coated with anti-CD28 mAb and HLA-A*02 in complex with SeqID No 1 peptide (FIG. 3C, left panel), SeqID No 5 peptide (FIG. 3D left panel), SeqID No 32 peptide (FIG. 3E, left panel) and SeqID No 220 peptide (FIG. 3F, left panel), respectively. After three cycles of stimulation, the detection of peptide-reactive cells was performed by 2D multimer staining with A*02/SeqID No 1 (FIG. 3C), A*02/SeqID No 5 (FIG. 3D), A*02/SeqID No 32 (FIG. 3E) or A*02/SeqID No 220 (FIG. 3F). Right panels (FIGS. 3C, 3D, 3E and 3F) show control staining of cells stimulated with irrelevant A*02/peptide complexes. Viable singlet cells were gated for CD8+ lymphocytes. Boolean gates helped excluding false-positive events detected with multimers specific for different peptides.
In order to obtain information regarding the immunogenicity of the TUMAPs of the present invention, the inventors performed investigations using an in vitro T-cell priming assay based on repeated stimulations of CD8+ T cells with artificial antigen presenting cells (aAPCs) loaded with peptide/MHC complexes and anti-CD28 antibody.
In order to perform in vitro stimulations by artificial antigen presenting cells loaded with peptide-MHC complex (pMHC) and anti-CD28 antibody, the inventors first isolated CD8+ T cells from fresh HLA-A*02 leukapheresis products via positive selection using CD8 microbeads (Miltenyi Biotec, Bergisch-Gladbach, Germany) of healthy donors obtained from the University clinics Mannheim, Germany, after informed consent.
PBMCs and isolated CD8+ lymphocytes were incubated in T-cell medium (TCM) until use consisting of RPMI-Glutamax (Invitrogen, Karlsruhe, Germany) supplemented with 10% heat inactivated human AB serum (PAN-Biotech, Aidenbach, Germany), 100 U/ml Penicillin/100 μg/ml Streptomycin (Cambrex, Cologne, Germany), 1 mM sodium pyruvate (CC Pro, Oberdorla, Germany), 20 μg/ml Gentamycin (Cambrex). 2.5 ng/ml IL-7 (PromoCell, Heidelberg, Germany) and 10 U/ml IL-2 (Novartis Pharma, Nirnberg, Germany) were also added to the TCM at this step.
Generation of pMHC/anti-CD28 coated beads, T-cell stimulations and readout was performed in a highly defined in vitro system using four different pMHC molecules per stimulation condition and 8 different pMHC molecules per readout condition.
The purified co-stimulatory mouse IgG2a anti human CD28 Ab 9.3 (Jung et al., 1987) was chemically biotinylated using Sulfo-N-hydroxysuccinimidobiotin as recommended by the manufacturer (Perbio, Bonn, Germany). Beads used were 5.6 μm diameter streptavidin coated polystyrene particles (Bangs Laboratories, Illinois, USA).
800.000 beads/200 μl were coated in 96-well plates in the presence of 4×12.5 ng different biotin-pMHC, washed and 600 ng biotin anti-CD28 were added subsequently in a volume of 200 μl. Stimulations were initiated in 96-well plates by co-incubating 1×10^6 CD8+ T cells with 2×10^5 washed coated beads in 200 μl TCM supplemented with 5 ng/ml IL-12 (PromoCell) for 3 days at 37° C. Half of the medium was then exchanged by fresh TCM supplemented with 80 U/ml IL-2 and incubating was continued for 4 days at 37° C. This stimulation cycle was performed for a total of three times. For the pMHC multimer readout using 8 different pMHC molecules per condition, a two-dimensional combinatorial coding approach was used as previously described (Andersen et al., 2012) with minor modifications encompassing coupling to 5 different fluorochromes.

Peptide Exchange (HLA-A*02:01) | Substance | Wells positive [%] (CD8+ T cells)
″+++″ (≥50 = +++) | 240 (ILARDILEI; listed as Homo sapiens) [compound 240] | ″+″ (<20% = +)
″+++″ (≥50 = +++) | 281 (NLLDDRGMTAL; listed as Homo sapiens) [compound 281] | ″+″ (<20% = +)
″+++″ (≥50 = +++) | 282 (LLRDGIELV; listed as Homo sapiens) [compound 282] | ″++″ (20%-49% = ++)
″+++″ (≥50 = +++) | 307 (LLLTKPTEA; listed as Homo sapiens) [compound 307] | ″+″ (<20% = +)
″++++″ (≥75% = ++++) | 320 (TIAPVTVAV; listed as Homo sapiens) [compound 320] | ″+″ (<20% = +)
″+++″ (≥50 = +++) | 322 (SLASIHVPL; listed as Homo sapiens) [compound 322] | ″+″ (<20% = +)
″++++″ (≥75% = ++++) | 323 (SLDLFNCEV; listed as Homo sapiens) [compound 323] | ″+″ (<20% = +)
″++++″ (≥75% = ++++) | 329 (VLMDGSVKL; listed as Homo sapiens) [compound 329] | ″+++″ (50%-69% = +++)
″+++″ (≥50 = +++) | 332 (VMIQHVENL; listed as Homo sapiens) [compound 332] | ″+″ (<20% = +)
″+++″ (≥50 = +++) | 380 (YLDRKLLTL; listed as Homo sapiens) [compound 380] | ″++++″ (> = 70% = ++++)

The next lines start with the substance.

Substance | Peptide Exchange (HLA-A*02:01) | Wells positive [%] (CD8+ T cells)
32 (FIDKFTPPV; listed as Homo sapiens) [compound 32] | ″++++″ (≥75% = ++++) | ″++++″ (> = 70% = ++++)
49 (FLTDLFAQL; listed as Homo sapiens) [compound 49] | ″++++″ (≥75% = ++++) | ″++″ (20%-49% = ++)
54 (FLYPFPLALF; listed as Homo sapiens) [compound 54] | ″+++″ (≥50 = +++) | ″+″ (<20% = +)
56 (FVFEAPYTL; listed as Homo sapiens) [compound 56] | ″+++″ (≥50 = +++) | ″++″ (20%-49% = ++)
57 (GLSEISLRL; listed as Homo sapiens) [compound 57] | ″++++″ (≥75% = ++++) | ″+″ (<20% = +)
69 (GLHQREIFL; listed as Homo sapiens) [compound 69] | ″+++″ (≥50 = +++) | ″+″ (<20% = +)
81 (WLVGQEFEL; listed as Homo sapiens) [compound 81] | ″+++″ (≥50 = +++) | ″+″ (<20% = +)
86 (HLYPGAVTI; listed as Homo sapiens) [compound 86] | ″+++″ (≥50 = +++) | ″+″ (<20% = +)
96 (ILIDKTSFV; listed as Homo sapiens) [compound 96] | ″+++″ (≥50 = +++) | ″+″ (<20% = +)
100 (ILNNEVFAI; listed as Homo sapiens) [compound 100] | ″+++″ (≥50 = +++) | ″++″ (20%-49% = ++)
101 (ILVVIEPLL; listed as Homo sapiens) [compound 101] | ″++++″ (≥75% = ++++) | ″+″ (<20% = +)
102 (IQDRAVPSL; listed as Homo sapiens) [compound 102] | ″++″ (≥20% = ++) | ″+″ (<20% = +)
112 (KTLDVDATYEI; listed as Homo sapiens) [compound 112] | ″+++″ (≥50 = +++) | ″+″ (<20% = +)
114 (LIPEGPPQV; listed as Homo sapiens) [compound 114] | ″+++″ (≥50 = +++) | ″+″ (<20% = +)
154 (SLLAELHVLTV; listed as Homo sapiens) [compound 154] | ″++++″ (≥75% = ++++) | ″+″ (<20% = +)
192 (YIQEYLTLL; listed as Homo sapiens) [compound 192] | ″+++″ (≥50 = +++) | ″+″ (<20% = +)
197 (YLQEVPILTL; listed as Homo sapiens) [compound 197] | ″++++″ (≥75% = ++++) | ″+″ (<20% = +)
200 (YMFEEVPIVI; listed as Homo sapiens) [compound 200] | ″++++″ (≥75% = ++++) | ″+″ (<20% = +)
201 (YQLELHGIEL; listed as Homo sapiens) [compound 201] | ″++++″ (≥75% = ++++) | ″+″ (<20% = +)
202 (YVDDVFLRV; listed as Homo sapiens) [compound 202] | ″++++″ (≥75% = ++++) | ″++″ (20%-49% = ++)
220 (ALPEILFAKV; listed as Homo sapiens) [compound 220] | ″+++″ (≥50 = +++) | ″++″ (20%-49% = ++)
